Data on three substances can be found in patent US7732133B2, “Screening methods for biologically active ligands” (Chugai Seiyaku Kabushiki Kaisha, priority 2000, dated 2010).

The target in data set [1] is T1, chimeric LIF receptor (human LIF receptor and human gp130 / mouse G-CSF receptor) in Ba/F3 cell line LIG (Homo sapiens, UniProt P40189+P42702).
T1 construct: from the 1st to the 833rd amino acid residues; expressed in transfected cells; host or cells: mouse Ba/F3 cells co-transfected with pCV-cLIFR and pCV-cgp130, clone LIG#47 = LIG
T1 sequence (P42702 45-833): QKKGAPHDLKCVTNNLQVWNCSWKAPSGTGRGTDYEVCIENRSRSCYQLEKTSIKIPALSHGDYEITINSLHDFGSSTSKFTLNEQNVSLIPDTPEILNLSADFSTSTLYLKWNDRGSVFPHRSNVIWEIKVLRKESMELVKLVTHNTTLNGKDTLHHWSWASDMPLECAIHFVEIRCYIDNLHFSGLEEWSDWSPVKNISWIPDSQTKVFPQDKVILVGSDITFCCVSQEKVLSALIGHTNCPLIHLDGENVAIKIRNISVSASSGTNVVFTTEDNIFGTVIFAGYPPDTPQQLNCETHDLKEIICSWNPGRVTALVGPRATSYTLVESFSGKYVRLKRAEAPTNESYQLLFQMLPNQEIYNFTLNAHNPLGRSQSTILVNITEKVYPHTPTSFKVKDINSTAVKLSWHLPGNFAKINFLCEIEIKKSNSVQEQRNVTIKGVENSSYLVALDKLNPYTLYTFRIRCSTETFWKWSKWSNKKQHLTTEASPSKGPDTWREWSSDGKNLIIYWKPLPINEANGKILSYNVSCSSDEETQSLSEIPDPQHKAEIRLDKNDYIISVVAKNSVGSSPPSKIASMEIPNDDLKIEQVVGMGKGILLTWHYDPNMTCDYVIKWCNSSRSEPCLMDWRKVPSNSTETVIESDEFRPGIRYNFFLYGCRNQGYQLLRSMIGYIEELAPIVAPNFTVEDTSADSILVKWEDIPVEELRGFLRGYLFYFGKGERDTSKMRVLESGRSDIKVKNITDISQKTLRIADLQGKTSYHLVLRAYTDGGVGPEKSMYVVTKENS
T1 sequence (P40189 23-619): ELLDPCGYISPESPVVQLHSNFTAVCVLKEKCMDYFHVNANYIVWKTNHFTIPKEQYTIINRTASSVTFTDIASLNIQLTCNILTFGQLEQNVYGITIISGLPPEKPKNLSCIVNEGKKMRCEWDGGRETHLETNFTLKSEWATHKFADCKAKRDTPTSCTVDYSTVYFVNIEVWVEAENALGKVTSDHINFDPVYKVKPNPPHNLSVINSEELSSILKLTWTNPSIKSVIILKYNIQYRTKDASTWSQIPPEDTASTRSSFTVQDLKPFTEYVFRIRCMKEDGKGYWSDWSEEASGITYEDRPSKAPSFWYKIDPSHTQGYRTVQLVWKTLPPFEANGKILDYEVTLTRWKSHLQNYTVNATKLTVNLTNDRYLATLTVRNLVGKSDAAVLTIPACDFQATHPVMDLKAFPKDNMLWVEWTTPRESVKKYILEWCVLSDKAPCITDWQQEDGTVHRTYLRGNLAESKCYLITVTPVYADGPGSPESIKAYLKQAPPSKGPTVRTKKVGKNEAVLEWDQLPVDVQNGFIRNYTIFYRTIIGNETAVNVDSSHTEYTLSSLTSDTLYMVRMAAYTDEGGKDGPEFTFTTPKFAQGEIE
T1 sequence (P40223 627-837 partner limits assumed): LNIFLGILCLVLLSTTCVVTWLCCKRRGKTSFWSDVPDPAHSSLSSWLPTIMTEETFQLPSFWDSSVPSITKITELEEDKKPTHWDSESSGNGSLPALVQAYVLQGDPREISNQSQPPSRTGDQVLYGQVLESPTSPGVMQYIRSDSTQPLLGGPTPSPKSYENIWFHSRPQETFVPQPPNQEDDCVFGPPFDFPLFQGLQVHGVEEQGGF
Description: Growth response of chimeric LIF receptor-expressing Ba/F3 cell line LIG (WST-8). The class given is cell-based. The note with it: 72 hours culture, WST-8 absorbance. From the text: Chimeric receptor DNAs were constructed by linking cDNA fragments encoding human LIF receptor (from the 1st to the 833rd amino acid residues; Gearing, D P. et al. […] EMBO J., 10, 2839-2848) and human gp130 (from the 1st to the 619th amino acid residues; Hibi, M. et al. (1990) Cell, 63, 1149-1157) with the transmembrane and intracellular domains (from the 602nd to the 813th amino acid residues; Fukunaga, R. et al. (1990) Cell 61, 341-350) of mouse G-CSF receptor, respectively. These constructs were inserted downstream of the HEF1α promoter of the mammalian expression vector pCV to construct chimeric receptors expression vectors, pCV-cLIFR and pCV-cgp130, respectively. pCV-cLIFR and pCV-cgp130 were linearized with Pvu I (Takara Shuzo), respectively, extracted with phenol and chloroform, and purified by ethanol precipitation. […]
(§1) The cells were washed twice with Media A, and were suspended in Media A to give a cell density of 5×10^4 cells/mL. […] After the culture, 10 μL/well WST-8 reagent (Cell Count Reagent SF; Nacalai Tesque) was added, and pre-reaction absorbance at a measurement wavelength of 450 nm and a control wavelength of 655 nm was measured using microplate reader (Model 3550, Bio Rad). The plate was incubated for two hours in a CO2 incubator (CO2 concentration, 5%), and post-reaction absorbance was measured as above. […]
Background: Tetrazolium dyes change colour on reduction, which living cells bring about.

Data set [2] addresses T2, chimeric leptin receptor (human leptin receptor extracellular domain / mouse G-CSF receptor) in Ba/F3 cell line LPG (Homo sapiens, UniProt P48357).
T2 construct: from the 1st to the 839th amino acid residues; expressed in transfected cells; host or cells: mouse Ba/F3 cells, clone LPG#51 = LPG
T2 sequence (P48357 22-839): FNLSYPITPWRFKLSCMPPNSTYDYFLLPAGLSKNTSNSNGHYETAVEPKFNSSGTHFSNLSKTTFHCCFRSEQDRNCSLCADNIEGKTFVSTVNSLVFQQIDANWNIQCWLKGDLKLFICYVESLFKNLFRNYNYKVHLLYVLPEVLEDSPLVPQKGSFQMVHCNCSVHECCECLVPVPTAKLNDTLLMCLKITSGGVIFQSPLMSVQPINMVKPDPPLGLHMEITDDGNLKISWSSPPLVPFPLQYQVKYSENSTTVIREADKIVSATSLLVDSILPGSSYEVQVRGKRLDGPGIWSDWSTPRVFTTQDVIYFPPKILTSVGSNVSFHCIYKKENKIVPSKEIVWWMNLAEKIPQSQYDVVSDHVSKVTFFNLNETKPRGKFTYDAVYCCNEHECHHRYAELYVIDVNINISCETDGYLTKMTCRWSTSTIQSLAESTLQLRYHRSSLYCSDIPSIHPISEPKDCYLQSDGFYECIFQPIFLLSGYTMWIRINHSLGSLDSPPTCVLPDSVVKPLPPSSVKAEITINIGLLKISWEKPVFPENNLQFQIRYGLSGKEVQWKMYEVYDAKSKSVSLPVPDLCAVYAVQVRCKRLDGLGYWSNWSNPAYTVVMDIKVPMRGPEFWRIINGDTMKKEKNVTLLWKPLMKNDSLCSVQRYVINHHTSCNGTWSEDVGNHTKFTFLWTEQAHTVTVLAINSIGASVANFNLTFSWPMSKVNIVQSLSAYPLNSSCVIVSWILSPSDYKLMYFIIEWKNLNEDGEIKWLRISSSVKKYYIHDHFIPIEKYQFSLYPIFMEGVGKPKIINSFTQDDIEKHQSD
Description: Growth response of chimeric leptin receptor-expressing Ba/F3 cell line LPG (WST-8). It counts as cell-based. The note with it: 72 hours culture, WST-8 absorbance.
Source text: A chimeric receptor cDNA was constructed by linking cDNA fragments encoding the extracellular domain (from the 1st to the 839th amino acid residues; Tartaglia, L A. et al. (1995) Cell, 83, 1263-1271) of human leptin receptor, and the transmembrane and intracellular domains (from the 602nd to the 813th amino acid residues; Fukunaga, R. et al. (1990) Cell 61, 341-350) of mouse G-CSF receptor. This cDNA was inserted downstream of the HEF1α promoter of the mammalian expression vector pCV to construct chimeric receptor expression vector pCV-cLepR. pCV-cLepR was linearized with Pvu I (Takara Shuzo), extracted with phenol and chloroform, and purified by ethanol precipitation. […]
as §1

For data set [3], the system named is mixed culture of cell lines GFG, EPG, TPG and parental Ba/F3. The data set is described as follows: Cytokine responses in mixed and individual cell cultures (Example 2). The class given is cell-based, mouse. The note with it: mixed culture of four cell lines (each 4×10^3 cells/well), similar in individual cultures, 72 hours, WST-8; listed as hEPO. The protocol:
Mixed culture of the cell lines GFG, EPG, and TPG, which express human G-CSF, EPO, and TPO chimeric receptors, respectively, and their parental cell line Ba/F3 was conducted and their response to various cytokines was examined.
The cells were washed twice with RPMI1640 media containing 2% fetal bovine serum, and then were suspended in RPMI1640 containing 10% fetal bovine serum. The four cell lines were mixed by adjusting each of the cell lines to 4×10^4 cells/mL (16×10^4 cells/mL in total) for the mixed culture, and, for individual cultures, cells were prepared at 4×10^4 cells/mL. 100 μL each of the cells were independently seeded on a 96-well microtiter plate (flat bottom, Falcon). After adding 100 μL/well each of appropriately diluted cytokines, the cultures were cultured for 72 hours in a CO2 incubator (5% CO2 concentration). After the culture, 10 μL/well WST-8 reagent (Cell Count Reagent SF; Nacalai Tesque) was added, and pre-reaction absorbance at a measurement wavelength of 450 nm and a control wavelength of 655 nm was measured using a microplate reader (Model 3550, Bio Rad). The plate was incubated for two hours in a CO2 incubator (CO2 concentration, 5%), and post-reaction absorbance was measured as above. Data were graphed out taking the cytokine concentrations on the horizontal axis and the amount of changes in absorbance after 2-hour incubation on the vertical axis (FIGS. 18, 19, and 20).

Data set [4] can be described thus: Titer of human EPO and G-CSF prepared from recombinant CHO cells.

For the substance “human LIF: human leukemia inhibitory factor (Genzyme)”, the “concentration at which an evident growth reaction was observed” value in data set [1] was no less than 0.4 ng/mL.
As for human leptin: human leptin (Genzyme), in data set [2], the “concentration at which an evident growth reaction was observed” value is reported as no less than 0.2 ng/mL.
Take erythropoietin [human EPO]: the “concentration where the response was observed to start” value in data set [3] turned out to be 2 pg/mL. The titer in data set [4] is recorded as 270,000 IU/mg.
